Source: US20030113787A1 (Takeda / Millennium, published 2003)

T1: FLAG-tagged CARD-10 (human, UniProt Q9BWT7 1-1032)
T1 construct: Expressed in 293T cells; also called FLAG-CARD-10
T1 sequence: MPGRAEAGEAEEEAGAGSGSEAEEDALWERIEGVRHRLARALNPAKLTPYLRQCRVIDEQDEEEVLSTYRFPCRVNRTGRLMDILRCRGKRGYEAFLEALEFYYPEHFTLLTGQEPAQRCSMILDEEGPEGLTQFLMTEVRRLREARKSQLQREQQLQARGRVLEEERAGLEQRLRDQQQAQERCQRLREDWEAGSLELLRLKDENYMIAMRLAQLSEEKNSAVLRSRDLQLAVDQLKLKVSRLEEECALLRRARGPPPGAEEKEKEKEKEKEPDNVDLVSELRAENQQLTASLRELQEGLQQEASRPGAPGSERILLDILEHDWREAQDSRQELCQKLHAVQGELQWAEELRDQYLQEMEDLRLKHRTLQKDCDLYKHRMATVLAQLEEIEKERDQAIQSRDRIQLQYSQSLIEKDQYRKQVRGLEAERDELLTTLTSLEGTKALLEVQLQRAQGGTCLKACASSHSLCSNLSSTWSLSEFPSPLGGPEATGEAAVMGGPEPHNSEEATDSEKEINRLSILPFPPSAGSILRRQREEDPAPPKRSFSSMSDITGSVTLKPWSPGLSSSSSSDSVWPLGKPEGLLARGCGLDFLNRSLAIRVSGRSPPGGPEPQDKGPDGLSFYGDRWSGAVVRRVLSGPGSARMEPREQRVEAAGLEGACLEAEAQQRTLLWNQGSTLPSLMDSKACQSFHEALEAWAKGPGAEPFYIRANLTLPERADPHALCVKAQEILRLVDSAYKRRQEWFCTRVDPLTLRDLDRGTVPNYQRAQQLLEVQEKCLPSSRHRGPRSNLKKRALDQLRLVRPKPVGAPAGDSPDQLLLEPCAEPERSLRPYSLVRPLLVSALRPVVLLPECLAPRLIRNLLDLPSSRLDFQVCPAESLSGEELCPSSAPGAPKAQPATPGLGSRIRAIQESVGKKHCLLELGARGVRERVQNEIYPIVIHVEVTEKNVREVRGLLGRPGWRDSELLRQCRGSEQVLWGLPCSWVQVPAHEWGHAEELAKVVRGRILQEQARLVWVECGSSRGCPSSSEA

T2: FLAG-CARD10/ΔCARD (human, UniProt Q9BWT7 131-1032)
T2 construct: also called CARD-10 truncation mutant lacking its CARD domain
T2 sequence: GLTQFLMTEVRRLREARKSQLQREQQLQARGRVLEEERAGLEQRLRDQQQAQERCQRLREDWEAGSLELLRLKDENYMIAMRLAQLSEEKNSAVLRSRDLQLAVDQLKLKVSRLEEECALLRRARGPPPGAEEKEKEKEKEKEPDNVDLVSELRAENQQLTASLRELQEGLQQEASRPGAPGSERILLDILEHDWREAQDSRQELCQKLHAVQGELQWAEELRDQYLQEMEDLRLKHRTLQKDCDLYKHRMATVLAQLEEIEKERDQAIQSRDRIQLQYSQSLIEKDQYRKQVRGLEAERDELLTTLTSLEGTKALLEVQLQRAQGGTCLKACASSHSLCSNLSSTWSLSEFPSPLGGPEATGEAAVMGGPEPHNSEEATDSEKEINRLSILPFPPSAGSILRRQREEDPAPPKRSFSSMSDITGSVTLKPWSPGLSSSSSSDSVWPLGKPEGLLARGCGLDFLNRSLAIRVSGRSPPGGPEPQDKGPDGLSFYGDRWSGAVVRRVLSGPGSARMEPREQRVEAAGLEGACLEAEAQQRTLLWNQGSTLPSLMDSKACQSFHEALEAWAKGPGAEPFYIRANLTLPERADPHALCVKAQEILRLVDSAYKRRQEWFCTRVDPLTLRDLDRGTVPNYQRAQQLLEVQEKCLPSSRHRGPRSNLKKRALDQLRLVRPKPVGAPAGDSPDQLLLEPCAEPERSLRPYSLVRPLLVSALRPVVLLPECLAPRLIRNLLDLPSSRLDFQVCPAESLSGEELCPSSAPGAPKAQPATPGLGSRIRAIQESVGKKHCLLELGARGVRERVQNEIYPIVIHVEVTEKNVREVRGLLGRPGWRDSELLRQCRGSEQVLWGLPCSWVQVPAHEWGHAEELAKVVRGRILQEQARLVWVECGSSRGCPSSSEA

B1: variant Bcl-10 with a point mutation (L41R) (other, UniProt O95999 1-233, looked up)
chain: MEPTAPSLTEEDLTEVKKDALENLRVYLCEKIIAERHFDHRRAKKILSREDTEEISCRTSSRKRAGKLLDYLQENPKGLDTLVESIRREKTQNFLIQKITDEVLKLRNIKLEHLKGLKCSSCEPFPDGATNNLSRSNSDESNFSEKLRASTVMYHPEGESSTTPFFSTNSSLNLPVLEVGRTENTIFSSTTLPRPGDPGAPPLPPDLQLEEEGTCANSSEMFLPLRSRTVSRQ
notes: also called Bcl-10 L41R mutant
B2: endogenous Bcl-10 (other, human, UniProt O95999 1-233, looked up)
chain: MEPTAPSLTEEDLTEVKKDALENLRVYLCEKIIAERHFDHLRAKKILSREDTEEISCRTSSRKRAGKLLDYLQENPKGLDTLVESIRREKTQNFLIQKITDEVLKLRNIKLEHLKGLKCSSCEPFPDGATNNLSRSNSDESNFSEKLRASTVMYHPEGESSTTPFFSTNSSLNLPVLEVGRTENTIFSSTTLPRPGDPGAPPLPPDLQLEEEGTCANSSEMFLPLRSRTVSRQ
notes: Endogenous protein in cell extracts

Tests used:
[1] = target: T1, FLAG-tagged CARD-10; experiment: co-immunoprecipitation from transfected 293T cells
[2] = target: T2, FLAG-CARD10/ΔCARD; experiment: co-immunoprecipitation from transfected 293T cells
[3] = target: T2, FLAG-CARD10/ΔCARD; experiment: co-immunoprecipitation with anti-Bcl-10 antibodies, anti-FLAG blot

Binder | binding result [1] | binding result [2] | binding result [3]
B1 | no binding | no binding | 
B2 |  |  | no binding
